Results as given in article PMC12912425, “Collagen-targeted tracers for molecular imaging of atrial fibrosis and sensitive detection of atrial fibrillation” (npj Cardiovascular Health, 2025).

Tests used:
[1] = Blood clearance of Cy5.5-labeled tracers after IV injection; assay type: in vivo, mouse; conditions: Cy5.5-conjugated tracer 0.5 mg/kg IV; mixed male/female 'AF + HF' and control mice, 28-31 weeks; blood NIR fluorescence at 2-4, 12, 240 min; one-phase decay fit; Mean±SEM, n=4 (EP-3533), n=8 (T-peptide)
Experimental: ‘AF + HF’ mice and non-transgenic controls (28–31 weeks) were intravenously injected with Cy5.5-labeled T-peptide or EP-3533 (0.5 mg/kg), as described above. Blood samples (2.5 µl) were collected from the opposite tail vein at 2–4, 12 and 240 min, and diluted in 47.5 µl of citrated PBS (0.32% w/v sodium citrate). 50 µl samples were transferred into 96-well plates (Optiplate, black-walled, transparent bottom; PerkinElmer, MA, USA) and scanned on the Odyssey CLx NIRF scanner using the ‘Manual L1’ intensity and 3 mm focus offset settings. Following subtraction of unlabeled blood background, the total fluorescence per well was plotted against time. The blood fluorescence levels at t = 0 and half-life were extrapolated from a one-phase decay non-linear regression, and the data was presented as percentage from the value of t = 0[26].

[2] = system: MMP-2-degraded collagen IV
Experimental: Ex vivo fluorescent imaging was performed according to our published protocol[26]. In brief, fluorescently-tagged EP-3533 or the T-peptide were injected intravenously into mice at 0.5 mg/kg via the tail vein. The S-peptide was delivered at 0.466 mg/kg, being the identical mole equivalent to the T-peptide (0.258 µmol/kg). Injections were performed by a person blinded to the administered substance. Animals were humanely euthanised 4 h post-injection by an overdose of ketamine (300 mg/kg) and xylazine (30 mg/kg) and perfused via the heart with 20 ml of PBS. The liver, lung, spleen, kidney, brain, thigh muscle and the heart were next harvested and the atria separated from the ventricles. Organs were then scanned on the Odyssey CLx NIRF 2-D scanner (Li-Cor Biosciences, NE, USA) at 169 µm resolution using the ‘Manual L1’ or ‘L2’ intensity and 0.5 mm focus offset settings. A noninjected mouse served for background correction. The mean fluorescence intensity value per pixel (1 pixel = 169 × 169 µm = 0.0285 mm^2) were then extracted from regions of interest using Image Studio 5.2 software (Li-Cor Biosciences).

[3] = Mouse plasma stability; assay type: in vitro ADME; conditions: Cy5.5-T-peptide 100 µg in 200 µL naïve C57BL/6 mouse plasma (citrated), 37 °C, acetonitrile precipitation, HPLC C18, 280 nm
Experimental: Cy5.5-T-Peptide (100 µg, 10 µL in PBS) was added to 200 µL of naïve C57BL/6 mouse plasma and the sample was incubated at 37 °C over 4 h. Aliquots (40 µL) were taken from the mixture at 5, 10, 30, 60 and 240 min, and then added to 40 µL of acetonitrile. The formed precipitates were separated by centrifugation and the supernatant was analyzed by HPLC. The percentage of decomposition at each timepoint was then calculated from the chromatograms (Supplementary Fig. 1). The HPLC conditions were: Phenomenex Luna® 5 µm C18(2) 100 Å, LC Column 150 ×4.6 mm at a flow rate of 1 mL/min (Method: 5–95% buffer B to A over 20 min, λabs = 280 nm).

[4] = 'AF + HF' mice, Cy5.5 conjugates equimolar 0.258 µmol/kg IV, 4 h, ex vivo NIR, S-peptide signal corrected for brightness, n=5 per group

With TLTYTWS [Cy5.5-T-peptide] the “blood (circulating) half-life” value [1] was 9.23 ± 0.9 min, the “T-peptide binding in atria relative to the S-peptide” value [2, 4] was 1.72 fold and the “T-peptide binding in ventricles relative to the S-peptide” value [2, 4] was 1.78 fold. For the same substance, the “atria/ventricles retention in 'AF + HF' mice” value ([2]; mouse, in vivo) was 2.61 fold, the “tracer remaining intact after 60 min in mouse plasma” value ([3]; 60 min) was 60% and the “tracer remaining intact after 4 h in mouse plasma” value ([3]; 240 min) was 22%.
